Laboratory results taken from the Human Domainome abundance scans (Beltran et al. 2025).

B1: COUP transcription factor 1, residues 83 to 159; numbered along this chain, P10589 (parent)
chain: HIECVVCGDKSSGKHYGQFTCEGCKSFFKRSVRRNLTYTCRANRNCPIDQHHRNQCQYCRLKKCLKVGMRREAVQRG

Variants of: B1
Assay: abundance fitness (aPCA) (normalised: wild type 0, dead -1); higher = more abundant; growth selection in yeast, the domain comes from the species named
Conditions: Homo sapiens

Abundance fitness: each site, then its substitutions
C24: Q -1.04; A -0.841; I -0.509; P -0.609; E -1.1; M -1.08; K -0.697; T -0.885; S -0.901; Y -0.319; R -0.795; N -0.702; D -0.335; L -0.841; W -0.707
T37: I -0.038; N 0.081; A 0.085; E 0.178; W 0.138; L -0.057; C -0.048; G 0.06; S -0.009; V 0.044; F -0.101; Y -0.254; Q -0.104; R 0.092; H 0.133; M -0.215; K 0.139
E22: V -0.064; W -0.061; I -0.495; D -0.025; Q 0.181; L -0.089; Y -0.342; M 0.01; P -0.038; F -0.226; H -0.504; R -0.504; G 0.089
K25: G 0.064; W 0.003; M 0.177; R 0.095; F 0.168; V 0.025; S 0.067; D 0.183; A 0.09; L -0.031; C 0.087; P -0.492; E 0.183; T 0.011; H 0.283
Y38: W -0.658; T -0.669; V -0.257; F -0.089; K -0.831; E -0.226; D -0.509; G -0.458; C -0.745; Q -0.464; R -0.662; I -0.24; P 0.094; S -0.791; M -0.059; A -0.378; N -0.772
R30: Q -0.411; L -0.195; E 0.054; K 0.389; Y -0.186; N -0.028; G -0.079; V 0.08; C 0.067; S -0.157; A -0.091; H -0.359
R41: W 0.145; Y 0.088; N 0.21; C 0.038; S 0.176; H 0.051; K 0.301; M 0.08; G 0.188; I 0.135; E 0.107; L 0.228; D 0.085; F -0.239; P 0.265; A 0.207; T -0.068
R33: L 0.109; F -0.51; I 0.086; A 0.142; W 0.068; G -0.029; P -0.771; Q 0.272; T 0.096; C -0.698; M -0.045; K -0.022; E 0.099; D 0.013
C40: V -0.861; D -0.51; T -0.503; E -0.683; A -0.885; P -0.941; I -0.496; H -1.21; K -0.384; S -1.08; L -0.786; Q -0.848; G -0.731; W -0.712; R -0.864; Y -0.704
S31: L -0.571; Q 0.053; I 0.014; C 0.075; A 0.036; R -0.955; G -0.598; Y -0.169; E -0.336; H -0.176; T -0.027; K -0.688; V -0.155; W -0.185
N35: W -0.38; H -0.256; S -0.508; V -0.104; C 0.538; K 0.085; T -0.346; G -0.003; E 0.161; P -0.402; M -0.118; R -0.196; L -0.513
F28: K -0.419; E -0.539; M -0.591; Y -0.42; P -1.04; L -0.754; A -0.809; T -1.2; V -0.807; G -1.05; S -0.813; C -0.757; W -0.069; D -0.991; Q -0.809; R -0.698
C21: I -0.999; K -0.818; P -0.923; M -1.01; V -1.09; Q -0.371; S -0.757; R -0.845; E -0.929; D -1.03; G -0.744; H -0.775; N -0.61; L -0.9; T -0.742; A -0.707; Y -0.974
V32: L -0.26; F -0.068; P -0.393; G -0.378; Y -0.062; E -0.072; A -0.151; R -0.66; D -0.265; C -0.798; M 0.072; W -0.784; K -0.181; I -0.089; S -0.336; N -0.196; Q -0.299; H 0.19
K29: A -0.079; P -0.534; E 0.103; L -0.186; C -0.705; V 0.013; S -0.058; F -0.147; H -0.048; D 0.153; G 0.068; T 0.026; R -0.181; W -0.149; Q 0.03; I -0.22; M -0.055; N -0.01
A42: G 0.217; L 0; F -0.282; K 0.002; Q 0.239; N -0.45; H -0.068; E 0.084
G23: H 0.287; R -0.081; D 0.418; F 0.044; Y 0.152; L -0.544; V -0.338; K -0.044; C 0.001; W 0.189; T -0.009; Q 0.031; A -0.153; S -0.174
R34: W -0.25; L -0.161; A 0.268; M -0.002; S -0.193; T -0.295; Q 0.018; I 0.091; Y -0.263; G 0.131; V -0.137; P -0.308; C -0.759
T20: S 0.067; Y -0.165; V 0.156; W -0.058; Q -0.382
F27: G -0.83; Y -0.61; T -1.1; S -0.815; R -0.515; E -0.519; D -0.783; A -0.812; H -0.634; V -0.692; Q -0.739; I -0.86; N -0.222; L -0.819; K -0.968; W -0.733
L36: R -0.082; M -0.085; Q -0.113; H 0.095; C -0.206; A -0.064; P 0.03; D -0.232; V 0.007; S -0.147; K 0.126; E 0.162; G -0.17
T39: M -0.126; Q 0.04; N 0.103; S 0.113; C -0.244; A 0.17; E 0.191; P -0.359; W 0.057; K -0.083; D 0.12; I -0.019; G -0.099; F 0.23; V 0.013; R -0.108
S26: L -0.035; P -0.812; F -0.275; D -0.32; Q 0.247; W 0.014; M 0.298; T 0.139; I -0.611; V 0.088; E 0.144; C -0.127; K 0.321; G 0.238; R -0.019; H -0.137; A -0.184
